Laboratory results from publication PMC6827286.

T1: colFD-NL
T1 chain: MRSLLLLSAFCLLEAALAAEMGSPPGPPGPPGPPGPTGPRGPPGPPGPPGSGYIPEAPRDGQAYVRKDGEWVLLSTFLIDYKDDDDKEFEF

B1: Hsp47-HT, P19324 Y353A (protein)
chain: AEVKKPLEAAAPGTAEKLSSKATTLAERSTGLAFSLYQAMAKDQAVENILLSPLVVASSLGLVSLGGKATTASQAKAVLSAEKLRDEEVHTGLGELLRSLSNSTARNVTWKLGSRLYGPSSVSFADDFVRSSKQHYNCEHSKINFRDKRSALQSINEWASQTTDGKLPEVTKDVERTDGALLVNAMFFKPHWDEKFHHKMVDNRGFMVTRSYTVGVTMMHRTGLYNYYDDEKEKLQMVEMPLAHKLSSLIILMPHHVEPLERLEKLLTKEQLKAWMGKMQKKAVAISLPKGVVEVTHDLQKHLAGLGLTEAIDKNKADLSRMSGKKDLYLASVFHATAFEWDTEGNPFDQDIAGREELRSPKLFYADHPFIFLVRDNQSGSLLFIGRLVRPKGDKMRDEL
B2: Hsp47-HT, P19324 I352L (protein)
chain: AEVKKPLEAAAPGTAEKLSSKATTLAERSTGLAFSLYQAMAKDQAVENILLSPLVVASSLGLVSLGGKATTASQAKAVLSAEKLRDEEVHTGLGELLRSLSNSTARNVTWKLGSRLYGPSSVSFADDFVRSSKQHYNCEHSKINFRDKRSALQSINEWASQTTDGKLPEVTKDVERTDGALLVNAMFFKPHWDEKFHHKMVDNRGFMVTRSYTVGVTMMHRTGLYNYYDDEKEKLQMVEMPLAHKLSSLIILMPHHVEPLERLEKLLTKEQLKAWMGKMQKKAVAISLPKGVVEVTHDLQKHLAGLGLTEAIDKNKADLSRMSGKKDLYLASVFHATAFEWDTEGNPFDQDLYGREELRSPKLFYADHPFIFLVRDNQSGSLLFIGRLVRPKGDKMRDEL
B3: Hsp47-HT, P19324 Y353L (protein)
chain: AEVKKPLEAAAPGTAEKLSSKATTLAERSTGLAFSLYQAMAKDQAVENILLSPLVVASSLGLVSLGGKATTASQAKAVLSAEKLRDEEVHTGLGELLRSLSNSTARNVTWKLGSRLYGPSSVSFADDFVRSSKQHYNCEHSKINFRDKRSALQSINEWASQTTDGKLPEVTKDVERTDGALLVNAMFFKPHWDEKFHHKMVDNRGFMVTRSYTVGVTMMHRTGLYNYYDDEKEKLQMVEMPLAHKLSSLIILMPHHVEPLERLEKLLTKEQLKAWMGKMQKKAVAISLPKGVVEVTHDLQKHLAGLGLTEAIDKNKADLSRMSGKKDLYLASVFHATAFEWDTEGNPFDQDILGREELRSPKLFYADHPFIFLVRDNQSGSLLFIGRLVRPKGDKMRDEL
B4: Hsp47-HT, P19324 I352R (protein)
chain: AEVKKPLEAAAPGTAEKLSSKATTLAERSTGLAFSLYQAMAKDQAVENILLSPLVVASSLGLVSLGGKATTASQAKAVLSAEKLRDEEVHTGLGELLRSLSNSTARNVTWKLGSRLYGPSSVSFADDFVRSSKQHYNCEHSKINFRDKRSALQSINEWASQTTDGKLPEVTKDVERTDGALLVNAMFFKPHWDEKFHHKMVDNRGFMVTRSYTVGVTMMHRTGLYNYYDDEKEKLQMVEMPLAHKLSSLIILMPHHVEPLERLEKLLTKEQLKAWMGKMQKKAVAISLPKGVVEVTHDLQKHLAGLGLTEAIDKNKADLSRMSGKKDLYLASVFHATAFEWDTEGNPFDQDRYGREELRSPKLFYADHPFIFLVRDNQSGSLLFIGRLVRPKGDKMRDEL
B5: Hsp47-HT, P19324 Y353R (protein)
chain: AEVKKPLEAAAPGTAEKLSSKATTLAERSTGLAFSLYQAMAKDQAVENILLSPLVVASSLGLVSLGGKATTASQAKAVLSAEKLRDEEVHTGLGELLRSLSNSTARNVTWKLGSRLYGPSSVSFADDFVRSSKQHYNCEHSKINFRDKRSALQSINEWASQTTDGKLPEVTKDVERTDGALLVNAMFFKPHWDEKFHHKMVDNRGFMVTRSYTVGVTMMHRTGLYNYYDDEKEKLQMVEMPLAHKLSSLIILMPHHVEPLERLEKLLTKEQLKAWMGKMQKKAVAISLPKGVVEVTHDLQKHLAGLGLTEAIDKNKADLSRMSGKKDLYLASVFHATAFEWDTEGNPFDQDIRGREELRSPKLFYADHPFIFLVRDNQSGSLLFIGRLVRPKGDKMRDEL
B6: Hsp47-HT, P19324 Y353F (protein)
chain: AEVKKPLEAAAPGTAEKLSSKATTLAERSTGLAFSLYQAMAKDQAVENILLSPLVVASSLGLVSLGGKATTASQAKAVLSAEKLRDEEVHTGLGELLRSLSNSTARNVTWKLGSRLYGPSSVSFADDFVRSSKQHYNCEHSKINFRDKRSALQSINEWASQTTDGKLPEVTKDVERTDGALLVNAMFFKPHWDEKFHHKMVDNRGFMVTRSYTVGVTMMHRTGLYNYYDDEKEKLQMVEMPLAHKLSSLIILMPHHVEPLERLEKLLTKEQLKAWMGKMQKKAVAISLPKGVVEVTHDLQKHLAGLGLTEAIDKNKADLSRMSGKKDLYLASVFHATAFEWDTEGNPFDQDIFGREELRSPKLFYADHPFIFLVRDNQSGSLLFIGRLVRPKGDKMRDEL
B7: Hsp47-HT, P19324 I352E (protein)
chain: AEVKKPLEAAAPGTAEKLSSKATTLAERSTGLAFSLYQAMAKDQAVENILLSPLVVASSLGLVSLGGKATTASQAKAVLSAEKLRDEEVHTGLGELLRSLSNSTARNVTWKLGSRLYGPSSVSFADDFVRSSKQHYNCEHSKINFRDKRSALQSINEWASQTTDGKLPEVTKDVERTDGALLVNAMFFKPHWDEKFHHKMVDNRGFMVTRSYTVGVTMMHRTGLYNYYDDEKEKLQMVEMPLAHKLSSLIILMPHHVEPLERLEKLLTKEQLKAWMGKMQKKAVAISLPKGVVEVTHDLQKHLAGLGLTEAIDKNKADLSRMSGKKDLYLASVFHATAFEWDTEGNPFDQDEYGREELRSPKLFYADHPFIFLVRDNQSGSLLFIGRLVRPKGDKMRDEL
B8: Hsp47-HT, P19324 Y353E (protein)
chain: AEVKKPLEAAAPGTAEKLSSKATTLAERSTGLAFSLYQAMAKDQAVENILLSPLVVASSLGLVSLGGKATTASQAKAVLSAEKLRDEEVHTGLGELLRSLSNSTARNVTWKLGSRLYGPSSVSFADDFVRSSKQHYNCEHSKINFRDKRSALQSINEWASQTTDGKLPEVTKDVERTDGALLVNAMFFKPHWDEKFHHKMVDNRGFMVTRSYTVGVTMMHRTGLYNYYDDEKEKLQMVEMPLAHKLSSLIILMPHHVEPLERLEKLLTKEQLKAWMGKMQKKAVAISLPKGVVEVTHDLQKHLAGLGLTEAIDKNKADLSRMSGKKDLYLASVFHATAFEWDTEGNPFDQDIEGREELRSPKLFYADHPFIFLVRDNQSGSLLFIGRLVRPKGDKMRDEL
B9: Hsp47-HT, P19324 I352F (protein)
chain: AEVKKPLEAAAPGTAEKLSSKATTLAERSTGLAFSLYQAMAKDQAVENILLSPLVVASSLGLVSLGGKATTASQAKAVLSAEKLRDEEVHTGLGELLRSLSNSTARNVTWKLGSRLYGPSSVSFADDFVRSSKQHYNCEHSKINFRDKRSALQSINEWASQTTDGKLPEVTKDVERTDGALLVNAMFFKPHWDEKFHHKMVDNRGFMVTRSYTVGVTMMHRTGLYNYYDDEKEKLQMVEMPLAHKLSSLIILMPHHVEPLERLEKLLTKEQLKAWMGKMQKKAVAISLPKGVVEVTHDLQKHLAGLGLTEAIDKNKADLSRMSGKKDLYLASVFHATAFEWDTEGNPFDQDFYGREELRSPKLFYADHPFIFLVRDNQSGSLLFIGRLVRPKGDKMRDEL
B10: Hsp47-HT, P19324 E356A (protein)
chain: AEVKKPLEAAAPGTAEKLSSKATTLAERSTGLAFSLYQAMAKDQAVENILLSPLVVASSLGLVSLGGKATTASQAKAVLSAEKLRDEEVHTGLGELLRSLSNSTARNVTWKLGSRLYGPSSVSFADDFVRSSKQHYNCEHSKINFRDKRSALQSINEWASQTTDGKLPEVTKDVERTDGALLVNAMFFKPHWDEKFHHKMVDNRGFMVTRSYTVGVTMMHRTGLYNYYDDEKEKLQMVEMPLAHKLSSLIILMPHHVEPLERLEKLLTKEQLKAWMGKMQKKAVAISLPKGVVEVTHDLQKHLAGLGLTEAIDKNKADLSRMSGKKDLYLASVFHATAFEWDTEGNPFDQDIYGRAELRSPKLFYADHPFIFLVRDNQSGSLLFIGRLVRPKGDKMRDEL
B11: Hsp47-HT, P19324 D351A (protein)
chain: AEVKKPLEAAAPGTAEKLSSKATTLAERSTGLAFSLYQAMAKDQAVENILLSPLVVASSLGLVSLGGKATTASQAKAVLSAEKLRDEEVHTGLGELLRSLSNSTARNVTWKLGSRLYGPSSVSFADDFVRSSKQHYNCEHSKINFRDKRSALQSINEWASQTTDGKLPEVTKDVERTDGALLVNAMFFKPHWDEKFHHKMVDNRGFMVTRSYTVGVTMMHRTGLYNYYDDEKEKLQMVEMPLAHKLSSLIILMPHHVEPLERLEKLLTKEQLKAWMGKMQKKAVAISLPKGVVEVTHDLQKHLAGLGLTEAIDKNKADLSRMSGKKDLYLASVFHATAFEWDTEGNPFDQAIYGREELRSPKLFYADHPFIFLVRDNQSGSLLFIGRLVRPKGDKMRDEL
B12: Hsp47-HT, P19324 Q350A (protein)
chain: AEVKKPLEAAAPGTAEKLSSKATTLAERSTGLAFSLYQAMAKDQAVENILLSPLVVASSLGLVSLGGKATTASQAKAVLSAEKLRDEEVHTGLGELLRSLSNSTARNVTWKLGSRLYGPSSVSFADDFVRSSKQHYNCEHSKINFRDKRSALQSINEWASQTTDGKLPEVTKDVERTDGALLVNAMFFKPHWDEKFHHKMVDNRGFMVTRSYTVGVTMMHRTGLYNYYDDEKEKLQMVEMPLAHKLSSLIILMPHHVEPLERLEKLLTKEQLKAWMGKMQKKAVAISLPKGVVEVTHDLQKHLAGLGLTEAIDKNKADLSRMSGKKDLYLASVFHATAFEWDTEGNPFDADIYGREELRSPKLFYADHPFIFLVRDNQSGSLLFIGRLVRPKGDKMRDEL
B13: Hsp47-HT, P19324 R355A (protein)
chain: AEVKKPLEAAAPGTAEKLSSKATTLAERSTGLAFSLYQAMAKDQAVENILLSPLVVASSLGLVSLGGKATTASQAKAVLSAEKLRDEEVHTGLGELLRSLSNSTARNVTWKLGSRLYGPSSVSFADDFVRSSKQHYNCEHSKINFRDKRSALQSINEWASQTTDGKLPEVTKDVERTDGALLVNAMFFKPHWDEKFHHKMVDNRGFMVTRSYTVGVTMMHRTGLYNYYDDEKEKLQMVEMPLAHKLSSLIILMPHHVEPLERLEKLLTKEQLKAWMGKMQKKAVAISLPKGVVEVTHDLQKHLAGLGLTEAIDKNKADLSRMSGKKDLYLASVFHATAFEWDTEGNPFDQDIYGAEELRSPKLFYADHPFIFLVRDNQSGSLLFIGRLVRPKGDKMRDEL

Molecular target: T1, colFD-NL
Assay: BRET
Conditions: chain shown with the change; in the ER of HEK293 cells; n = 4; parent: est. 100; read off a plot

Binder | percent of parent
B1 | 83%
B2 | 92%
B3 | 82%
B4 | 81%
B5 | 74%
B6 | 88%
B7 | 83%
B8 | 77%
B9 | 95%

Molecular target: T1, colFD-NL
Assay: BRET
Conditions: chain shown with the change; in the ER of HEK293 cells; n = 4; parent: est. 100; read off a plot
Remark: another data set of the same source

Binder | percent of parent
B1 | 84%
B10 | 95%
B11 | 100%
B12 | 100%
B13 | 96%
